Data on two molecules can be found in article PMC8790524, “Probing the binding of interleukin-23 to individual receptor components and the IL-23 heteromeric receptor complex in living cells using NanoBRET” (Cell Chemical Biology, 2022).

For test [1], the target named is wild-type IL23R heteromer (IL23R and IL12Rβ1) (UniProt Q5VWK5-1 24-629; P42701-1 24-662). Kind of test: cell-based or functional assay.
Test [2] has as its target T1, NL-IL23R co-expressed with untagged IL12Rβ1 (heteromeric IL-23 receptor complex) (UniProt Q5VWK5 24-629; P42701-1 24-662). Kind of test: cell-based or functional assay.
Test [3] has as its target NL-IL12Rβ1 co-expressed with HaloTag-IL23R (UniProt P42701 24-662; Q5VWK5 24-629, HaloTag NanoBRET 618 ligand bound to the HaloTag). Kind of test: cell-based or functional assay.
In test [4] the target is T2, NL-IL23R co-expressed with SNAP-tag fused IL12Rβ1 (UniProt Q5VWK5 24-629; P42701 24-662). The experiment in a line: cell-based or functional assay.
For test [5], the target named is T3, NL-IL23R co-expressed with HaloTag fused IL12Rβ1 (UniProt Q5VWK5 24-629; P42701 24-662). The experiment in a line: cell-based or functional assay.
Test [6] deals with T1, NL-IL23R co-expressed with untagged …. Kind of test: FRET or BRET; NanoBRET competition on living HEK293T cells co-transfected with NL-IL23R and IL12Rβ1: titration of unlabelled IL-23 against several concentrations of IL23-TMR; HBSS with 1 mg/ml BSA, 1 h; Ki by Cheng-Prusoff or by linear regression of IC50 against IL23-TMR concentration. Conditions: one partner purified. (In general: Bioluminescence resonance energy transfer reports proximity on the nanometre scale.)

For test [7], the target named is T4, NL-IL12Rβ1 co-expressed with unlabeled IL23R (UniProt P42701 24-662; Q5VWK5-1 24-629).
T4 construct: IL-12 receptor subunit β1 (IL12Rβ1), full-length, synthesised without its endogenous signal peptide; Gly-Ser-Arg linker between NanoLuciferase and its N terminus; IL-23 receptor (IL23R) from the Origene IL23R-MYCDDK expression plasmid; called unlabeled or untagged in the results; also called NL-IL12Rβ1:IL23R complex; NL-IL12Rβ1 + IL23R; source: HEK293T, transiently co-transfected (1:1 or 1:10 …)
Kind of test: FRET or BRET; NanoBRET saturation binding of IL23-TMR to living HEK293T cells transfected with NL-IL12Rβ1 and IL23R at a 1:10 ratio (2.2 μg total DNA per well); HBSS with 1 mg/ml BSA, 1 h; non-specific binding with 100 nM unlabelled IL-23. The following applies: one partner purified.

The target of test [8] is T1, NL-IL23R co-expressed with untagged …. Kind of test: FRET or BRET; NanoBRET saturation binding of IL23-TMR to living HEK293T cells transiently expressing the NL-fused receptor (alone or 1:1 with the partner receptor plasmid); HBSS with 1 mg/ml BSA, 1 h, 37.5°C; non-specific binding with an excess of unlabelled IL-23 (50 nM to 1 μM). Conditions: one partner purified.
Test [9] addresses T4, NL-IL12Rβ1 co-expressed with unlabeled …. The description is as above. The following applies: one partner purified.
Test [10] addresses T5, NanoLuciferase-tagged full-length IL23R (UniProt Q5VWK5 24-629).
T5 construct: IL-23 receptor (IL23R), full-length, synthesised without its endogenous signal peptide; Gly-Ser-Arg linker between NanoLuciferase and its N terminus; Open reading frame: N-terminal IL-6 secretion signal, NanoLuciferase, Gly-Ser-Arg, IL23R; in a pNLF vector; also called NL-IL23R; IL6SS-NL-IL23R; source: HEK293T, transiently transfected, on living cells; not shown: NanoLuciferase, N-terminal, kept
T5 sequence (looked up): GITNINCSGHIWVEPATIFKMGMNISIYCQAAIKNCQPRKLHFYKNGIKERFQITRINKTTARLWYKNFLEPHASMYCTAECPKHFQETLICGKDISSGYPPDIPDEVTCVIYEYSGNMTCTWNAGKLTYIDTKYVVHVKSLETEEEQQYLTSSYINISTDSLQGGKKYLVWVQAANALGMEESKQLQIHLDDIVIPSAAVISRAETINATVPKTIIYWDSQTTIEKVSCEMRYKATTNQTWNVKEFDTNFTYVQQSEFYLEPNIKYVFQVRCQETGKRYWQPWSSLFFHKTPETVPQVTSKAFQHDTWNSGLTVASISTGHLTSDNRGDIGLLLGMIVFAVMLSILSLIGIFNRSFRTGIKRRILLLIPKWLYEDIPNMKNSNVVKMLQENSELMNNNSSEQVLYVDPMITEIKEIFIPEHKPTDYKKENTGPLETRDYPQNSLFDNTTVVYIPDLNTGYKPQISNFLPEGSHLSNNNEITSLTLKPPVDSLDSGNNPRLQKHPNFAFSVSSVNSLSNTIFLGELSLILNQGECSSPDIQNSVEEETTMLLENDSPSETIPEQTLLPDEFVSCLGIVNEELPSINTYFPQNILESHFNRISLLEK
The test is described as above. Conditions: one partner purified.

Test [11] addresses T2, NL-IL23R co-expressed with SNAP-tag …. The description is as above. The following applies: one partner purified.
For test [12], the target named is T6, NanoLuciferase-tagged full-length IL12Rβ1 (UniProt P42701 24-662).
T6 construct: IL-12 receptor subunit β1 (IL12Rβ1), full-length, synthesised without its endogenous signal peptide; Gly-Ser-Arg linker between NanoLuciferase and its N terminus; Open reading frame: N-terminal IL-6 secretion signal, NanoLuciferase, Gly-Ser-Arg, IL12Rβ1; in a pNLF vector; also called NL-IL12Rβ1; IL6SS-NL-IL12Rβ1; source: HEK293T, transiently transfected, on living cells; not shown: …
The description is as above. Conditions: one partner purified.

For test [13], the target named is T3, NL-IL23R co-expressed with HaloTag …. Described as above. Conditions: one partner purified.

Several values for one entry are separate records, joined by “and”; a condition that tells them apart may be missing. Equal values may be shown once.

B1: Recombinant IL-23 protein (unlabeled) (ligand)
chain 1: RAVPGGSSPAWTQCQQLSQKLCTLAWSAHPLVGHMDLREEGDEETTNDVPHIQCGDGCDPQGLRDNSQFCLQRIHQGLIFYEKLLGSDIFTGEPSLLPDSPVGQLHASLLGLSQLLQPEGHHWETQQIPSLSPSQPWQRLLLRFKILRSLQAFVAVAARVFAHGAATLSP
chain 2: IWELKKDVYVVELDWYPDAPGEMVVLTCDTPEEDGITWTLDQSSEVLGSGKTLTIQVKEFGDAGQYTCHKGGEVLSHSLLLLHKKEDGIWSTDILKDQKEPKNKTFLRCEAKNYSGRFTCWWLTTISTDLTFSVKSSRGSSDPQGVTCGAATLSAERVRGDNKEYEYSVECQEDSACPAAEESLPIEVMVDAVHKLKYENYTSSFFIRDIIKPDPPKNLQLKPLKNSRQVEVSWEYPDTWSTPHSYFSLTFCVQVQGKSKREKKDRVFTDKTSATVICRKNASISVRAQDRYYSSSWSEWASVPCS
modifications: several mass peaks differing by 162 Da, most likely N-linked glycosylation
notes: IL23p19, the alpha subunit of IL-23, disulfide-linked to IL12p40; IL12p40, the beta subunit of IL-23, disulfide-linked to IL23p19; also called interleukin-23; unlabeled IL-23; source: HEK293-F, co-transduced with BacMam viruses (p19-His and p40), purified from the supernatant (Ni-Sepharose); gift of GlaxoSmithKline
For orientation: Ki means a measure of affinity in units of concentration, obtained from inhibition or displacement. Low readings indicate tighter binding, high ones weaker binding. Regarding B1, the “EC50 of IL-23 for STAT3 phosphorylation (Tyr705, AlphaLISA SureFire Ultra), HEK293T cells, 30 min” value in [1] was 0.269 nM. Besides, the “potency (EC50) of IL-23 for STAT3 phosphorylation (Tyr705, AlphaLISA SureFire Ultra), HEK293T cells, 30 min” value in [2] worked out at 0.154 nM; in test [4], 0.15 nM; in test [5], 0.199 nM. Besides, the “EC50 of IL-23 for the increase in intra-receptor BRET between NL-IL12Rβ1 and HaloTag-IL23R” value in [3] was determined as 0.457 nM. Besides, the “EC50 of IL-23 for the increase in intra-receptor BRET between NL-IL23R and SNAP-IL12Rβ1 (AF488)” value in [4] worked out at 0.0429 nM. The “EC50 of IL-23 for the decrease in intra-receptor BRET between NL-IL23R and HaloTag-IL12Rβ1 (HT618)” value in [5] was 0.0436 nM. The inhibition constant Ki in test [6] was 0.0316 nM and 0.0272 nM.

B2: TAMRA-conjugated IL-23 (ligand)
chain 1: B1 chain 1
chain 2: B1 chain 2
modifications: TAMRA (5(6)-carboxytetramethylrhodamine, coupled as NHS ester); 64.9% of TAMRA labels were located on IL23p19; sites not stated | TAMRA (labelled to a lesser extent than IL23p19; sites not stated); several mass peaks differing by 162 Da, most likely N-linked glycosylation
notes: IL23p19, the alpha subunit of IL-23, disulfide-linked to IL12p40; IL12p40, the beta subunit of IL-23, disulfide-linked to IL23p19; A mixture: by LC-MS 52.3% unlabeled, 29.5% single and 18.2% double labeled; by FCS/PCH 39.6% mono-labeled, 11.9% multi-labeled, 48.5% unlabeled; also called IL23-TMR; TAMRA-tagged IL-23; source: HEK293-F, co-transduced with BacMam viruses (p19-His and p40), purified …
By Kd is commonly meant the equilibrium constant for the complex coming apart. Take B2: the Kd was 0.647 nM in test [7]; 0.0351 nM in test [6]; 0.027 nM in test [8]; 46.7 nM in test [9]; 222 nM in [10]; 0.454 ± 0.043 nM in test [11]. Also, the results for the dissociation constant (Kd) in test [12] and in test [13] were 30.1 nM and 0.179 ± 0.008 nM, respectively. For the same molecule, the “KD of the high-affinity site (two-site fit)” value in test [9] is 0.028 nM. Also, the “KD of the low-affinity site (two-site fit)” value in test [9] is 72 nM.
